The record followed here is patent publication US5770691A, “Discriminatory substrates for MMP hydrolysis” (Regents of the University of Minnesota, priority 1995, dated 1998).

As usually defined, the Km is the concentration of substrate that gives half-maximal velocity.

The subject of series [1] is T1, CCC[C@H](NC(=O)[C@H](CCC(=O)O)NC(=O)[C@@H](NC(=O)[C@@H]1CCCN1C(=O)[C@H](CCCCN)NC(=O)[C@@H]1CCCN1C(=O)[C@H](CCCNC(=N)N)NC(=O)Cc1cc(=O)oc2cc(OC)ccc12)C(C)C)C(=O)N[C@@H](Cc1c[nH]c2ccccc12)C(=O)N[C@@H](CCCNC(=N)N)C(=O)N[C@@H](CCCCNc1ccc([N+](=O)[O-])cc1[N+](=O)[O-])C(N)=O.
T1 construct: made in house; host or cells: native secreted protein purified from culture medium of human rheumatoid synovial cells
The series can be described thus: Fluorometric hydrolysis of synthetic Mca/Lys(Dnp) substrates by MMP-3. Format: biochemical, human. The source says: (§1) All MMPs were purified in zymogen form. ProMMP-1 (Suzuki et al., Biochem., 29, 10261 (1990)), proMMP-2 (Okada et al., Eur. J. Biochem., 194, 721 (1990)), and proMMP-3 (Ito et al., Arch. Biochem. Biophys., 267, 211 (1988)) were purified from the culture medium of human rheumatoid synovial cells stimulated with rabbit macrophage-conditioned medium. ProMMP-9 was purified from the culture medium of HT-1080 cells as described in Morodomi et al., Biochem. J., 285, 603 (1992). ProMMP-2 and proMMP-9 were activated by reacting with 1 mM 4-aminophenylmercuric acetate at 37° C. for 45 minutes and 32 hours, respectively. ProMMP-1 was activated by reacting with 1 mM 4-aminophenylmercuric acetate and an equimolar amount of MMP-3 at 37° C. for 6 hours. After activation, MMP-3 was completely removed from MMP-1 by affinity chromatography using an anti-MMP-3 IgG Affi-Gel 10 column. The resin, Affi-Gel 10 (Biorad, Emoryville, Calif.), was coupled to anti-MMP-3 IgG (Okada et al., Annals of Rheumat. Dis., 48, 645 (1989)) per the manufacturer's protocol. Pro-MMP-3 was activated by reacting with 5 μg/mL chymotrypsin at 37° C. for 2 hours. Chymotrypsin was inactivated with 2 mM diisopropylfluorophosphate. The amounts of active MMP-1, MMP-2, and MMP-3 were determined by titration with tissue inhibitor of metalloproteinase-1(TIMP1) over a concentration range of 0.1-3 μg/mL, while the amount of active MMP-9 was determined by titration with TIMP-2 (0.1-3 μg/mL). TIMP-1 was isolated from the medium of HT-1080 cells as described in Morodomi et al., Biochem J., 285, 603 (1992).
(§2) Substrates were prepared as 10 mM stock solutions in dimethylsulfoxide (DMSO). Fluorescent assays were performed at λex =325 nm and λem =393 nm, which should encounter no interference from Trp residues, using a Hitachi fluorescence spectrophotometer F-3010. Initial total hydrolysis assays were run at a substrate concentration of […] to avoid filtering effects. The change in fluorescence at this concentration was 110 based on total hydrolysis of 1 μM substrate. A typical assay was carried out by incubating 100 μL of various concentrations of a substrate with 10 μL of an enzyme solution (2-20 nM) in 50 mM Tris-HCl, pH 7.5, 0.15M NaCl, 10 mM CaCl2, 0.05% Brij 35, 0.02% NaN3. The reaction was stopped by addition of 900 μl of 3% (v/v) glacial acetic acid. MMP-3 activity at pH 6.0 was measured in 50 mM sodium acetate buffer, pH 6.0, instead of Tris-HCl buffer. The amount of substrate hydrolysis was calculated based on the fluorescence values of the Mca-Arg-Pro-Lys-Pro-Gln standard solution after substraction of the reaction blank value (stopping solution added before the enzyme). Individual kinetic parameters (kcat and KM) were determined over a substrate concentration range of 2.5-75 μM and calculated by double reciprocal plots.

Series [2] deals with T2, COc1ccc2c(CC(=O)N3CCC[C@H]3C(=O)N[C@@H](CCCCN)C(=O)N3CCC[C@H]3C(=O)N[C@@H](CCC(N)=O)C(=O)N[C@@H](CCC(N)=O)C(=O)N[C@@H](Cc3ccccc3)C(=O)N[C@@H](Cc3ccccc3)C(=O)NCC(=O)N[C@@H](CC(C)C)C(=O)N[C@@H](CCCCNc3ccc([N+](=O)[O-])cc3[N+](=O)[O-])C(=O)NCC(=O)O)cc(=O)oc2c1.
T2 construct: made in house; host or cells: native secreted protein purified from culture medium of human rheumatoid synovial cells
The description is as above. The format is biochemical, human. The conditions noted are these: other: MMP-3, 37° C., pH 7.5; 37.0 °C.
From the text: as §1, §2

Series [3] concerns T3, CCC[C@H](NC(=O)[C@H](C)NC(=O)[C@H](Cc1ccc(O)cc1)NC(=O)[C@@H]1CCCN1C(=O)[C@H](CCCCN)NC(=O)[C@@H]1CCCN1C(=O)[C@H](CCCNC(=N)N)NC(=O)Cc1cc(=O)oc2cc(OC)ccc12)C(=O)N[C@@H](Cc1c[nH]c2ccccc12)C(=O)N[C@@H](CCSC)C(=O)N[C@@H](CCCCNc1ccc([N+](=O)[O-])cc1[N+](=O)[O-])C(N)=O.
T3 construct: made in house; host or cells: native secreted protein purified from culture medium of human rheumatoid synovial cells
The series is described as above. Format: biochemical, human. The conditions noted are these: other: MMP-3, 37° C., pH 7.5; 37.0 °C.
From the text: as §1, §2

Series [4] deals with T4, COc1ccc2c(CC(=O)N3CCC[C@H]3C(=O)N[C@@H](CCCCN)C(=O)N3CCC[C@H]3C(=O)N[C@@H](CCC(N)=O)C(=O)N[C@@H](CCC(N)=O)C(=O)N[C@@H](Cc3ccccc3)C(=O)N[C@@H](Cc3ccccc3)C(=O)NCC(=O)N[C@@H](CC(C)C)C(=O)N[C@@H](CCCCNc3ccc([N+](=O)[O-])cc3[N+](=O)[O-])C(=O)NCC(=O)O)cc(=O)oc2c1.
T4 construct: made in house; host or cells: native secreted protein purified from culture medium of HT-1080 cells
Briefly: Fluorometric hydrolysis of synthetic Mca/Lys(Dnp) substrates by MMP-9. The conditions noted are these: other: MMP-9, 37° C., pH 7.5. Format: biochemical.
From the text: as §1, §2

Series [5] relates to T5, CCC[C@H](NC(=O)[C@H](CCC(=O)O)NC(=O)[C@@H](NC(=O)[C@@H]1CCCN1C(=O)[C@H](CCCCN)NC(=O)[C@@H]1CCCN1C(=O)[C@H](CCCNC(=N)N)NC(=O)Cc1cc(=O)oc2cc(OC)ccc12)C(C)C)C(=O)N[C@@H](Cc1c[nH]c2ccccc12)C(=O)N[C@@H](CCCNC(=N)N)C(=O)N[C@@H](CCCCNc1ccc([N+](=O)[O-])cc1[N+](=O)[O-])C(N)=O.
T5 construct: made in house; host or cells: native secreted protein purified from culture medium of HT-1080 cells
Described as above. Format: biochemical. The conditions noted are these: other: MMP-9, 37° C., pH 7.5.
From the text: as §1, §2

In series [6] the test system is T6, CCC[C@H](NC(=O)[C@H](C)NC(=O)[C@H](Cc1ccc(O)cc1)NC(=O)[C@@H]1CCCN1C(=O)[C@H](CCCCN)NC(=O)[C@@H]1CCCN1C(=O)[C@H](CCCNC(=N)N)NC(=O)Cc1cc(=O)oc2cc(OC)ccc12)C(=O)N[C@@H](Cc1c[nH]c2ccccc12)C(=O)N[C@@H](CCSC)C(=O)N[C@@H](CCCCNc1ccc([N+](=O)[O-])cc1[N+](=O)[O-])C(N)=O.
T6 construct: made in house; host or cells: native secreted protein purified from culture medium of HT-1080 cells
Described as above. The format is biochemical. The conditions noted are these: other: MMP-9, 37° C., pH 7.5.
From the text: as §1, §2

The mark [7] stands for this setting: other: MMP-3, 25° C., pH 7.5, 25.0 °C.
[8] abbreviates: other: MMP-3, 37° C., pH 7.5, 37.0 °C.
Where [9] appears, read: other: MMP-3, pH 6.0 (50 mM sodium acetate buffer), 37° C., pH 6.0, 37.0 °C.

Sequence of MMP-9 (Homo sapiens) (chain, as listed by the source): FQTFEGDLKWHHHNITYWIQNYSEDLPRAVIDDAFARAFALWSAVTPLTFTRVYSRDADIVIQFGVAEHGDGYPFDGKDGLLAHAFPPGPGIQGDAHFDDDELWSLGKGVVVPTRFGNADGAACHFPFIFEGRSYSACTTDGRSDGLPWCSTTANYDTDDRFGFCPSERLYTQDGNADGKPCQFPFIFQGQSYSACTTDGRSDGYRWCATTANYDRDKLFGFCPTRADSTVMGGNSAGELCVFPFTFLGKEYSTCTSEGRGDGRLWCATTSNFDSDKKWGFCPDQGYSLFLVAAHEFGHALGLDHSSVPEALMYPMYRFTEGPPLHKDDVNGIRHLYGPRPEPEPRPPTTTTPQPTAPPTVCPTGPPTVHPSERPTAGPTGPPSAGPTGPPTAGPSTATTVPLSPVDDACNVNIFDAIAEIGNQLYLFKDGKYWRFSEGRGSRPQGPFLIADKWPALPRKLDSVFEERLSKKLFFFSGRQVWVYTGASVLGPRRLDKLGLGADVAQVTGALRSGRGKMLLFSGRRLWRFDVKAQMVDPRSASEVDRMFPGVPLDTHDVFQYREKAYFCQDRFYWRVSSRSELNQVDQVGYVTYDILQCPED
Sequence of MMP-3 (Homo sapiens) (chain, as listed by the source): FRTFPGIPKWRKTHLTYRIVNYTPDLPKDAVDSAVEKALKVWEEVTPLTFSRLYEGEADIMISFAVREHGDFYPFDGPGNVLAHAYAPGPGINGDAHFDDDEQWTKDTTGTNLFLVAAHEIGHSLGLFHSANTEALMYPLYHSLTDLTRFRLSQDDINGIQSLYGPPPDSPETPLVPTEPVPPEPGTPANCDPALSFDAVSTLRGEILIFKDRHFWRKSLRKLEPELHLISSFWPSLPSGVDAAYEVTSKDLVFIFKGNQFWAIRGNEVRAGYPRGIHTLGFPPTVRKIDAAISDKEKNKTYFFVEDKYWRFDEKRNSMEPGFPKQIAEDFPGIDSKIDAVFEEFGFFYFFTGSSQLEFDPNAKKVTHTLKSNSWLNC

Turning to MMP-3 (Homo sapiens), the Km in series [1] (setting [7]) was 20 µM; in series [1] (setting [8]) it was 25 µM; in series [1] (setting [9]), 7.5 µM; in series [2], 50 µM; in series [3], 66 µM. Besides, the kcat in series [1] (setting [7]) was determined as 1.31 S^-1; in series [1] (setting [8]), 5.40 S^-1; in series [1] (setting [9]) it was 2.20 S^-1; in series [2], 0.53 S^-1; in series [3], 3.95 S^-1. The kcat/Km is 65,700 S^-1 M^-1 in series [1] (setting [7]); 218,000 S^-1 M^-1 in series [1] (setting [8]); 302,000 S^-1 M^-1 in series [1] (setting [9]); 10,900 S^-1 M^-1 in series [2]; 59,400 S^-1 M^-1 in series [3].

As for MMP-9 (Homo sapiens), in series [4], the Km came to 45 µM, the kcat was 0.18 S^-1 and the kcat/Km was 4,000 S^-1 M^-1. Further, in series [5], the Km worked out at 28 µM, the kcat is given as 0.282 S^-1 and the kcat/Km is reported as 10,100 S^-1 M^-1. Besides, in series [6], the Km came to 25 µM, the kcat was 1.38 S^-1 and the kcat/Km is given as 55,300 S^-1 M^-1.
